The assay concerns the target PrgH_(11–120), cytoplasmic domain of the inner-membrane ring protein PrgH (Salmonella enterica serovar Typhimurium) (UniProt P41783). Kind of assay: crystal structure; PrgH_(11–120) at 5–10 mg/ml, 20°C, 15–20% PEG 6000, 0.02 M CaCl2, 0.1 M HEPES pH 6.5; packing in the asymmetric unit.

We go through one substance from publication PMC3635987.

“PrgH_(11–120), cytoplasmic domain of the inner-membrane ring protein PrgH (from UniProt P41783 11-120) (domain or fragment)” registered a stoichiometry N of 6.
